Data published in patent US7598352B2, “Method of identifying polypeptide monobodies which bind to target proteins and use thereof” (University of Rochester, priority 2000, dated 2009).

Assays:
Type in all cases: cell-based
[1] = biological target: T1, ERα-E (residues 297-554, the E domain of Estrogen Receptor α) (Homo sapiens, UniProt P03372, G400V); assay: Quantitative β-galactosidase yeast two-hybrid assay, ERα-E bait (F domain deleted) compared with ERα-EF; conditions: for effect of deletion of the F domain on interaction with the ERα fragments: in the presence of E2, ERα-E vs ERα-EF, FIGS. 16A-C
T1 construct: ERα-E (residues 297-554, the E domain of Estrogen Receptor α); expressed in transfected cells; host or cells: Saccharomyces cerevisiae RFY206
T1 sequence (P03372 297-554 G400V): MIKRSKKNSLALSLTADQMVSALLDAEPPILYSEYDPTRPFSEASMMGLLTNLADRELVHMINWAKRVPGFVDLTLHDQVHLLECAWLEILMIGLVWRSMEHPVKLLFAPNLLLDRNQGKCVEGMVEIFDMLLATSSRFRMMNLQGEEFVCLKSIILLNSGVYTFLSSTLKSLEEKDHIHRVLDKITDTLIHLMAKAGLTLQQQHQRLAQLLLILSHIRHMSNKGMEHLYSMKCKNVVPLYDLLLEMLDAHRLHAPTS
Procedure: (§1) Quantitative assays were performed as follows. The yeast strain RFY206 was (1) first transformed with pEGERα297-595 (or pEGERα297-554) and pSH18-34 and (2) subsequently with a derivative of the pYT45 plasmid encoding a particular monobody. Yeast cells were grown overnight at 30° C. in YC Glc-his-ura-trp media. The culture was then spun down, the media were discarded, and the cells were resuspended in YC Gal Raf-his-ura-trp media containing a ligand at a final cell density of 0.2 OD660 nm in a total volume of 175 μl in the wells of a deep 96-well plate. Ligands used were E2, ICI182,780, OHT, raloxifene, progesterone, estriol, diethylstilbestrol, and genistein. The ligand concentration was 1 μM except for genistein (10 μM). After incubating for six hours at 30° C. with shaking, 175 μl of β--galactosidase assay buffer (60 mM Na2HPO4, 40 mM NaH2PO4, 10 mM KCl, 1 mM MgSO4, 0.27% β-mercaptoethanol, 0.004% SDS, 4 mg/ml 2-nitrophenyl-β-D-[…], 50% Y-PER (Pierce)) was added to the culture, incubated at 30° C., then the reaction was stopped by adding 150 μl of 1M Na2CO3. After centrifugation, OD420 was measured and the β-galactosidase activity was calculated.
The affects of the F domain (residues 551-595) on interactions of monobodies with the LBD (the E domain) of ERα was tested. The β-galactosidase activity of cells containing a LexA-ERα E domain fusion protein and a monobody-activation domain fusion protein was compared to the β-galactosidase activity of cells containing LexA-ERα-EF and the same monobody-activation domain fusion protein (FIGS. 16A-E).

[2] = biological target: T2, ERα-EF (residues 297-595, the E and F domains of Estrogen Receptor α) (Homo sapiens, UniProt P03372, G400V); assay: Quantitative β-galactosidase yeast two-hybrid assay, ERα-EF bait; conditions: for binding to different ERα-EF/agonist complexes: agonists E2, estriol, diethylstilbestrol, genistein, FIGS. 15A-D
T2 construct: expressed in transfected cells; host or cells: Saccharomyces cerevisiae RFY206 (mated with EGY48 for the survival screens)
T2 sequence (P03372 with tags, fused parts or gaps G400V): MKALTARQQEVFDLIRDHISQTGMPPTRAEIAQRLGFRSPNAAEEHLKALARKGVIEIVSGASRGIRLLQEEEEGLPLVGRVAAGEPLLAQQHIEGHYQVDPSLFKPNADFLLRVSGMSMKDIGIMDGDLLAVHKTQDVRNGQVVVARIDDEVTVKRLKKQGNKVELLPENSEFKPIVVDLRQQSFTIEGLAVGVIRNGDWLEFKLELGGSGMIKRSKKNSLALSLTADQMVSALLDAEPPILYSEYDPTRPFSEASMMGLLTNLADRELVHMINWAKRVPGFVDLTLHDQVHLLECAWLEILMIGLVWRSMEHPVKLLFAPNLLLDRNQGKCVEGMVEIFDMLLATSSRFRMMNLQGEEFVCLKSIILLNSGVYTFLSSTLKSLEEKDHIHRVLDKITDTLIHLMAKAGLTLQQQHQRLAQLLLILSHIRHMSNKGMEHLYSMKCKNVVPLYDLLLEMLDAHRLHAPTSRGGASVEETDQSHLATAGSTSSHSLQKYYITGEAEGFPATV
Procedure: as §1
The binding specificity of the monobodies toward different ERα-EF/ligand complexes was examined using quantitative β-galactosidase assays. It has been shown that the β-galactosidase activity correlates well with the interaction affinity between the bait and prey of the yeast two-hybrid system (Estojak et al., 1995), allowing an in vivo discrimination of interaction affinity. To minimize the effect of different ligands on the expression level and degradation of the LexA-ER fusion protein, β-galactosidase activity was determined after a short incubation period (6 hours) following the addition of a ligand and the initiation of monobody production. It was confirmed that yeast samples prepared in the presence and absence of ligands contained similar levels of ERα-EF protein (FIG. 14H).

[3] = biological target: T2, ERα-EF (residues 297-595, the E and F domains of Estrogen Receptor α); assay: Yeast two-hybrid survival assay (LEU+ growth selection) of monobody clones; conditions: ligand ICI182,780, pYT45B3F7 library clones
Source text: Briefly, utilizing such a system, plasmids are constructed that encode two fusion proteins, the interaction of which is shown schematically in FIGS. 4A-B. The first fusion protein (also known as “bait”) contains the DNA-binding domain (e.g., LexA) fused to a known protein, in this case a nuclear receptor or fragment thereof which includes a functional ligand binding domain (NR-LBD). Any of the above-identified nuclear receptors (or fragments thereof which include a functional ligand binding domain) can be used as the bait protein or polypeptide. The second fusion protein (also known as “prey”) includes an activation domain (e.g., B42) fused to an unknown protein, in this case a polypeptide monobody, that is encoded by a cDNA which has been recombined into a plasmid as part of a combinatorial cDNA library. Both plasmids include a promoter which is operable in yeast cells and which has been ligated upstream of the fusion protein coding regions. […] In contrast, where interaction between the monobody of the prey and the nuclear receptor ligand binding domain of the bait occurs (FIG. 4B), a functional transcription factor is reconstituted, resulting in expression of the reporter gene which can be detected by an assay for the reporter gene product. […]

B1: SRC-1: NR-box fragment (residues 570-780) of steroid receptor coactivator-1, natural coactivator of ER (protein)
chain: PSRLNIQPAKAESKDNKEIASILNEMIQSDNSSSDGKPLDSGLLHNNDRLSDGDSKYSQTSHKLVQLLTTTAEQQLRHADIDTSCKDVLSCTGTSNSASANSSGGSCPSSHSSLTERHKILHRLLQEGSPSDITTLSVEPDKKDSASTSVSVTGQVQGNSSIKLELDASKKKESKDHQLLRYLLDKDEKDLRSTPNLSLDDVKVKVEKKEQ
modifications: left off: large carriers
[1]
  effect of deletion of the F domain on interaction with the ERα fragments: little effect
[2]
  binding to different ERα-EF/agonist complexes: bind equally well

B2: Clone F2-2#11: pYT45B3F7 library monobody, E2 screen; FG loop RVMDMLL (SEQ ID No: 44) (protein)
chain: MQVSDVPRDLEVVAATPTSLLISWDAPAVTVRYYRITYGETGGNSPVQEFTVPGSKSTATISGLKPGVDYTITVYAVTGRVMDMLLSKPISINYRT
modifications: left off: large carriers
[2]; ERα-EF/agonist complexes
  sensitivity to the differences among agonist complexes: most sensitive
[2]; ERα-EF/agonist complexes, FIGS. 14-16
  β-galactosidase activity among those tested: lowest
[2]
  binding to different ERα-EF/agonist complexes: different reactivity

B3: F2-2#10 (protein)
chain: MQVSDVPRDLEVVAATPTSLLISWDAPAVTVRYYRITYGETGGNSPVQEFTVPGSKSTATISGLKPGVDYTITVYAVTGRVRDLLMSKPISINYRT
modifications: left off: large carriers
[3]
  Binding Specificity ICI: weak+

B4: Clone 33: pYT45B3F7 library monobody, OHT screen; FG loop TWVRPNQ (SEQ ID No: 49) (protein)
chain: MQVSDVPRDLEVVAATPTSLLISWDAPAVTVRYYRITYGETGGNSPVQEFTVPGSKSTATISGLKPGVDYTITVYAVTGTWVRPNQSKPISINYRT
modifications: left off: large carriers
[1]; in the absence of a ligand
  effect of deletion of the F domain on interaction with ERα: did not increase
[1]; in the presence of OHT, FIG. 16D
  interactions with ERα-E and ERα-EF compared: similar
[1]; raloxifene, FIG. 16D
  interaction with ERα-E/raloxifene complex relative to ERα-EF/raloxifene complex: significantly greater

B5: Clone 23,31,E31,3,4,5: pYT45B3F7 library monobody, E2 screen; FG loop LRLMLAG (SEQ ID No: 36), wild-type BC loop (protein)
chain: MQVSDVPRDLEVVAATPTSLLISWDAPAVTVRYYRITYGETGGNSPVQEFTVPGSKSTATISGLKPGVDYTITVYAVTGLRLMLAGSKPISINYRT
modifications: left off: large carriers
[1]
  effect of deletion of the F domain on interaction with the ERα fragments: little effect
[2]
  binding to different ERα-EF/agonist complexes: bind equally well
